The values that follow come from article PMC4686829 (Nature Communications, 2015).

Assay [1] concerns the target globular head of H5 HA, HA1 fragment between residue D55 and E271 (F55–271) of A/Anhui/1/2005 (Influenza A virus A/Anhui/1/2005 (H5N1)). Kind of assay: crystal structure. The note with it: both partners purified.
For assay [2], the target named is HA fragment between residues I60 and G263 (F60–263) of A/Anhui/1/05, displayed on yeast (Influenza A virus A/Anhui/1/2005 (H5N1), strain). Kind of assay: flow cytometry on cells. The note with it: one partner purified. A general note: A flow cytometer gives signals particle by particle.

B1: AVFluIgG03 Fab (Fab, V domains shown)
VH: EVQLLESGGGLVQPGGSLRVSCTNSGFTFSNYAMSWVRQAPGKGLEWVSAISGNGGSGTYYADSVKGRFTISRDNSKNTMYLQMNSLRAEDTAVYYCVRDDSYDGGGHYGLHNWFDSWGQGTLVTVSS
VL: SVLTQPPSVSGAPGQRVTISCTGSSSNIGAGYDVHWYQQLPGTAPKLLIYGNSNRPSGVPDRFSGSKSGTSASLAITGLQAEDEADYYCQSYDSSVVVFGGGTKLEIK
notes: also called Fab of AVFluIgG03; AVFulgG03
Regarding B1, the binding result in assay [1] is “binds”.

B2: AVFluIgG03, full-length human IgG1 (antibody, V domains shown)
VH: B1 VH
VL: B1 VL
notes: IgG1; also called AVFulgG03; AVFluIg03; source: 293 T cells, transient transfection, purified (Protein A agarose)
With B2, the binding result in assay [2] is reported as “binds”.

B3: 65C6 Fab (Fab, V domains shown)
VH: EVQLVQSGAEVKKPGESLRISCKGFAYSSTYFWISWVRQMPGKGLEWMGRIDPTDSYINYSPSFQGHVTISVDRSISTVYLQWSSLKASDTAMYYCAYHRRGHFYGSGSAWDWFESWGQGTLVTVSS
VL: EIVLTQSPLTLSVSPGERATLSCRASQSVSSNLAWYQQMPGQAPRLLIYGASTRATGIPARLSGSASGTEFTLTISSLQSEDFAVYYCQQYNNWPYTFGQGTKLEIK
Regarding B3, the binding result in assay [1] is “binds”.

B4: 65C6, full-length human IgG1 (antibody, V domains shown)
VH: B3 VH
VL: B3 VL
notes: IgG1; source: 293 T cells, transient transfection, purified (Protein A agarose)
As to B4, in assay [2], the binding result is “binds”.

B5: 100F4, full-length human IgG1 (antibody, V domains shown)
VH: QLQLQESGLGLVKPSETLSLTCTVSGDSVSSGSYYWSWLRQPPGKGLEWIGNMHGSGHTNYNPSLKSRVTITPDTSKNHFSLRLSSVTAADTAVYYCARALLTTVTTFEYWGQGTLVTVSS
VL: QSALTQPPSVSGAPGQRVTIPCTGGSSNIGAGYSVHWYQQLPGTAPKLLIYGSNSRPSGVPDRFSGSKSGTSASLAITGLRPEDEADYYCQSYDSSLSGSQVFGAGTRVTVL
notes: as for B4
For the molecule B5, in assay [2], the binding result is given as “binds”.
